Patent US12295987B2, “Method of using a GIP/GLP1 co-agonist for diabetes” (Eli Lilly and Company, priority 2018, dated 2025)
Numbered stars: 1 amine (or outer) side, 2 acyl side, 3 side chain; on linkers, the order of the positions; unused ones are H or OH. Square brackets hold non-standard residues; d marks the D form. Side chains are listed from the residue outwards. Ends that are not written are not given here. * marks the point of attachment. C20 diacid = O=C(O)CCCCCCCCCCCCCCCCCCC(=O)*; γGlu = O=C(O)[C@H](CCC(=O)[*:2])N[*:1]; αMeL = CC(C)C[C@](C)(N)C(=O)O; αMeK = C[C@](N)(CCCCN)C(=O)O; AEEA = NCCOCCOCC(=O)O; Aib = CC(C)(N)C(=O)O

Biological target: T1, human gastric inhibitory peptide receptor (hGIPR) (Homo sapiens, UniProt P48546)
T1 construct: expressed in transfected cells; host or cells: HEK293
T1 sequence (P48546 22-466): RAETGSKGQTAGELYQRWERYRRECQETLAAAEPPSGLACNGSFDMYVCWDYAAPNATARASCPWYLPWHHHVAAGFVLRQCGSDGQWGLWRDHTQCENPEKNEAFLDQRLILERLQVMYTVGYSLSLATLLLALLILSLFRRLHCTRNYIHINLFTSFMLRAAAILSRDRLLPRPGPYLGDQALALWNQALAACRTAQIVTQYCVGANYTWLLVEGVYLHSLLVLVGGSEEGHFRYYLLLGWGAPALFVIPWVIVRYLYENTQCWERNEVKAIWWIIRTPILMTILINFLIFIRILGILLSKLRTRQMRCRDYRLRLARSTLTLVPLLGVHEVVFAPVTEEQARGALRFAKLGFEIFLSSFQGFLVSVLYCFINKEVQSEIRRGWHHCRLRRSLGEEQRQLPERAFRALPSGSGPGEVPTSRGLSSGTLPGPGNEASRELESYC
Assay: cAMP pharmacological functional assay in presence of 0.1% casein, hGIPR
Type: cell-based
Settings: ratio of hGIPR to hGLP1R cAMP EC50 ratios

Y-Aib-EGTFTSDYSI-αMeL-LDEK((2-[2-(2-Amino-ethoxy)-ethoxy]-acetyl)2-(γGlu)-CO—(CH2)18—CO2H)AQ-αMeK-AFIEYLLEGGPSSGAPPPS-NH2 (Y[Aib]EGTFTSDYSI[αMeL]LDEK([AEEA-AEEA-γGlu-C20 diacid])AQ[αMeK]AFIEYLLEGGPSSGAPPPS-NH2; N-terminus assumed; SMILES CC[C@H](C)[C@H](NC(=O)[C@H](Cc1ccccc1)NC(=O)[C@H](C)NC(=O)[C@](C)(CCCCN)NC(=O)[C@H](CCC(N)=O)NC(=O)[C@H](C)NC(=O)[C@H](CCCCNC(=O)COCCOCCNC(=O)COCCOCCNC(=O)CC[C@H](NC(=O)CCCCCCCCCCCCCCCCCCC(=O)O)C(=O)O)NC(=O)[C@H](CCC(=O)O)NC(=O)[C@H](CC(=O)O)NC(=O)[C@H](CC(C)C)NC(=O)[C@](C)(CC(C)C)NC(=O)[C@@H](NC(=O)[C@H](CO)NC(=O)[C@H](Cc1ccc(O)cc1)NC(=O)[C@H](CC(=O)O)NC(=O)[C@H](CO)NC(=O)[C@@H](NC(=O)[C@H](Cc1ccccc1)NC(=O)[C@@H](NC(=O)CNC(=O)[C@H](CCC(=O)O)NC(=O)C(C)(C)NC(=O)[C@@H](N)Cc1ccc(O)cc1)[C@@H](C)O)[C@@H](C)O)[C@@H](C)CC)C(=O)N[C@@H](CCC(=O)O)C(=O)N[C@@H](Cc1ccc(O)cc1)C(=O)N[C@@H](CC(C)C)C(=O)N[C@@H](CC(C)C)C(=O)N[C@@H](CCC(=O)O)C(=O)NCC(=O)NCC(=O)N1CCC[C@H]1C(=O)N[C@@H](CO)C(=O)N[C@@H](CO)C(=O)NCC(=O)N[C@@H](C)C(=O)N1CCC[C@H]1C(=O)N1CCC[C@H]1C(=O)N1CCC[C@H]1C(=O)N[C@@H](CO)C(N)=O) [Peptide 21]
[hGIPR/hGLP1R] EC50 Ratio: 4.85

Y-Aib-EGTFTSDYSI-αMeL-LDKIAQ-Aib-AFIEYLIK((2-[2-(2-Amino-ethoxy)-ethoxy]-acetyl)2-(γGlu)-CO—(CH2)18—CO2H)GG-NH2 (YXEGTFTSDYSIXLDKIAQXAFIEYLIKGG; Aib, αMeL; K lipidated C20 diacid-γGlu-AEEA2; C-terminal amide; (2)..(2) Xaa at position 2 is Aib; (13)..(13) Xaa at position 13 is alpha-methyl-Leu; (20)..(20) Xaa at position 20 is Aib; MOD_RES (28)..(28) Lys at position 28 is chemically modified by conjugation of the epsilon-amino group of the Lys side chain with (2-[2-(2-amino-ethoxy)-ethoxy]-acetyl)2-(gamma-Glu)-CO-(CH2)18- CO2H; MOD_RES (30)..(30) Gly at position 30 is amidated) [Peptide 97]
[hGIPR/hGLP1R] EC50 Ratio: 3.56

Y-Aib-EGTFTSDYSI-αMeL-LDKK((2-[2-(2-Amino-ethoxy)-ethoxy]-acetyl)2-(γGlu)-CO—(CH2)18—CO2H)AQ-Aib-AFIEYLIEGG-NH2 (YXEGTFTSDYSIXLDKKAQXAFIEYLIEGG; Aib, αMeL; K lipidated C20 diacid-γGlu-AEEA2; C-terminal amide; (2)..(2) Xaa at position 2 is Aib; (13)..(13) Xaa at position 13 is alpha-methyl-Leu; MOD_RES (17)..(17) Lys at position 17 is chemically modified by conjugation of the epsilon-amino group of the Lys side chain with (2-[2-(2-amino-ethoxy)-ethoxy]-acetyl)2-(gamma-Glu)-CO-(CH2)18- CO2H; (20)..(20) Xaa at position 20 is Aib; MOD_RES (30)..(30) Gly at position 30 is amidated) [Peptide 62]
[hGIPR/hGLP1R] EC50 Ratio: 5.03

Y-Aib-EGTFTSDYSI-αMeL-LDKK((2-[2-(2-Amino-ethoxy)-ethoxy]-acetyl)2-(γGlu)-CO—(CH2)18—CO2H)AQ-Aib-AFIEYLIEGGPSSGAPPPS-NH2 (YXEGTFTSDYSIXLDKKAQXAFIEYLIEGGPSSGAPPPS; Aib, αMeL; lipidated K; C-terminal amide; (2)..(2) Xaa at position 2 is Aib; (13)..(13) Xaa at position 13 is alpha-methyl-Leu; MOD_RES (17)..(17) Lys at position 17 is chemically modified by conjugation of the epsilon-amino group of the Lys side chain with (2-[2-(2-amino-ethoxy)-ethoxy]-acetyl)2-(gamma-Glu)-CO-(CH2)18- CO2H; (20)..(20) Xaa at position 20 is Aib; MOD_RES (39)..(39) Ser at position 39 is amidated) [Peptide 20]
[hGIPR/hGLP1R] EC50 Ratio: 4.87

Y-Aib-EGTFTSDYSI-αMeL-LDSK((2-[2-(2-Amino-ethoxy)-ethoxy]-acetyl)2-(γGlu)-CO—(CH2)18—CO2H)AQ-Aib-AFIEYLIEGG-NH2 (YXEGTFTSDYSIXLDSKAQXAFIEYLIEGG; Aib, αMeL; K lipidated C20 diacid-γGlu-AEEA2; C-terminal amide; (2)..(2) Xaa at position 2 is Aib; (13)..(13) Xaa at position 13 is alpha-methyl-Leu; MOD_RES (17)..(17) Lys at position 17 is chemically modified by conjugation of the epsilon-amino group of the Lys side chain with (2-[2-(2-amino-ethoxy)-ethoxy]-acetyl)2-(gamma-Glu)-CO-(CH2)18- CO2H; (20)..(20) Xaa at position 20 is Aib; MOD_RES (30)..(30) Gly at position 30 is amidated) [Peptide 64]
[hGIPR/hGLP1R] EC50 Ratio: 3.66

Y-Aib-EGTFTSDYSI-αMeL-LDSK((2-[2-(2-Amino-ethoxy)-ethoxy]-acetyl)2-(γGlu)-CO—(CH2)18—CO2H)AQ-Aib-AFIEYLIEGGPSSGAPPPS-NH2 (YXEGTFTSDYSIXLDSKAQXAFIEYLIEGGPSSGAPPPS; Aib, αMeL, lipidated Lys, C-terminal amide; (2)..(2) Xaa at position 2 is Aib; (13)..(13) Xaa at position 13 is alpha-methyl-Leu; MOD_RES (17)..(17) Lys at position 17 is chemically modified by conjugation of the epsilon-amino group of the Lys side chain with (2-[2-(2-amino-ethoxy)-ethoxy]-acetyl)2-(gamma-Glu)-CO-(CH2)18- CO2H; (20)..(20) Xaa at position 20 is Aib; MOD_RES (39)..(39) Ser at position 39 is amidated) [Peptide 52]
[hGIPR/hGLP1R] EC50 Ratio: 2.72

Y-Aib-EGTFTSDYSI-αMeL-LDTK((2-[2-(2-Amino-ethoxy)-ethoxy]-acetyl)2-(γGlu)-CO—(CH2)18—CO2H)AQ-Aib-AFIEYLIEGG-NH2 (YXEGTFTSDYSIXLDTKAQXAFIEYLIEGG; Aib, αMeL; K lipidated C20 diacid-γGlu-AEEA2; C-terminal amide; (2)..(2) Xaa at position 2 is Aib; (13)..(13) Xaa at position 13 is alpha-methyl-Leu; MOD_RES (17)..(17) Lys at position 17 is chemically modified by conjugation of the epsilon-amino group of the Lys side chain with (2-[2-(2-amino-ethoxy)-ethoxy]-acetyl)2-(gamma-Glu)-CO-(CH2)18- CO2H; (20)..(20) Xaa at position 20 is Aib; MOD_RES (30)..(30) Gly at position 30 is amidated) [Peptide 65]
[hGIPR/hGLP1R] EC50 Ratio: 4.46
